The text below walks through data of patent publication US20230235013A1 (MABSOLVE, published 2023).

The experiment concerns the target T1, Histidine-tagged recombinant human FcγRI (CD64) (human, UniProt P12314 16-288).
T1 construct: bought; also called Sino Biological Cat. No. 12056-H08H
Briefly: SPR, culture supernatant, captured His-FcγRI. (SPR reads the build-up and loss of mass on a sensor chip optically.)
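Further: biacore T200 SPR at 25 °C, anti-His capture, supernatants of HEK293 cells expressing IgG1 Fc variants injected 1 min, reference-subtracted response read 55 s after injection start.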

B1: anti-CD20 human IgG1 L234H/L235E/G236R (antibody)
heavy: QVQLQQPGAELVKPGASVKMSCKASGYTFTSYNMHWVKQTPGRGLEWIGAIYPGNGDTSYNQKFKGKATLTADKSSSTAYMQLSSLTSEDSAVYYCARSTYYGGDWYFNVWGAGTTVTVSSASTKGPSVFPLAPSSKSTSGGTAALGCLVKDYFPEPVTVSWNSGALTSGVHTFPAVLQSSGLYSLSSVVTVPSSSLGTQTYICNVNHKPSNTKVDKKVEPKSCDKTHTCPPCPAPEHERGPSVFLFPPKPKDTLMISRTPEVTCVVVDVSHEDPEVKFNWYVDGVEVHNAKTKPREEQYNSTYRVVSVLTVLHQDWLNGKEYKCKVSNKALPAPIEKTISKAKGQPREPQVYTLPPSRDELTKNQVSLTCLVKGFYPSDIAVEWESNGQPENNYKTTPPVLDSDGSFFLYSKLTVDKSRWQQGNVFSCSVMHEALHNHYTQKSLSLSPGK
light: QIVLSQSPAILSASPGEKVTMTCRASSSVSYIHWFQQKPGSSPKPWIYATSNLASGVPVRFSGSGSGTSYSLTISRVEAEDAATYYCQQWTSNPPTFGGGTKLEIKRTVAAPSVFIFPPSDEQLKSGTASVVCLLNNFYPREAKVQWKVDNALQSGNSQESVTEQDSKDSTYSLSSTLTLSKADYEKHKVYACEVTHQGLSSPVTKSFNRGEC
notes: also called 1-64; copies: 2 + 2
On to B1, for which the Mean binding response came to 22.8 RU.

B2: anti-CD20 human IgG1 L234H/L235M/G236R (antibody)
heavy: QVQLQQPGAELVKPGASVKMSCKASGYTFTSYNMHWVKQTPGRGLEWIGAIYPGNGDTSYNQKFKGKATLTADKSSSTAYMQLSSLTSEDSAVYYCARSTYYGGDWYFNVWGAGTTVTVSSASTKGPSVFPLAPSSKSTSGGTAALGCLVKDYFPEPVTVSWNSGALTSGVHTFPAVLQSSGLYSLSSVVTVPSSSLGTQTYICNVNHKPSNTKVDKKVEPKSCDKTHTCPPCPAPEHMRGPSVFLFPPKPKDTLMISRTPEVTCVVVDVSHEDPEVKFNWYVDGVEVHNAKTKPREEQYNSTYRVVSVLTVLHQDWLNGKEYKCKVSNKALPAPIEKTISKAKGQPREPQVYTLPPSRDELTKNQVSLTCLVKGFYPSDIAVEWESNGQPENNYKTTPPVLDSDGSFFLYSKLTVDKSRWQQGNVFSCSVMHEALHNHYTQKSLSLSPGK
light: QIVLSQSPAILSASPGEKVTMTCRASSSVSYIHWFQQKPGSSPKPWIYATSNLASGVPVRFSGSGSGTSYSLTISRVEAEDAATYYCQQWTSNPPTFGGGTKLEIKRTVAAPSVFIFPPSDEQLKSGTASVVCLLNNFYPREAKVQWKVDNALQSGNSQESVTEQDSKDSTYSLSSTLTLSKADYEKHKVYACEVTHQGLSSPVTKSFNRGEC
notes: also called 1-70; copies: 2 + 2
Consider B2, for which the Mean binding response was 31.3 RU.

B3: anti-CD20 human IgG1 L234H/L235G/G236R (antibody)
heavy: QVQLQQPGAELVKPGASVKMSCKASGYTFTSYNMHWVKQTPGRGLEWIGAIYPGNGDTSYNQKFKGKATLTADKSSSTAYMQLSSLTSEDSAVYYCARSTYYGGDWYFNVWGAGTTVTVSSASTKGPSVFPLAPSSKSTSGGTAALGCLVKDYFPEPVTVSWNSGALTSGVHTFPAVLQSSGLYSLSSVVTVPSSSLGTQTYICNVNHKPSNTKVDKKVEPKSCDKTHTCPPCPAPEHGRGPSVFLFPPKPKDTLMISRTPEVTCVVVDVSHEDPEVKFNWYVDGVEVHNAKTKPREEQYNSTYRVVSVLTVLHQDWLNGKEYKCKVSNKALPAPIEKTISKAKGQPREPQVYTLPPSRDELTKNQVSLTCLVKGFYPSDIAVEWESNGQPENNYKTTPPVLDSDGSFFLYSKLTVDKSRWQQGNVFSCSVMHEALHNHYTQKSLSLSPGK
light: QIVLSQSPAILSASPGEKVTMTCRASSSVSYIHWFQQKPGSSPKPWIYATSNLASGVPVRFSGSGSGTSYSLTISRVEAEDAATYYCQQWTSNPPTFGGGTKLEIKRTVAAPSVFIFPPSDEQLKSGTASVVCLLNNFYPREAKVQWKVDNALQSGNSQESVTEQDSKDSTYSLSSTLTLSKADYEKHKVYACEVTHQGLSSPVTKSFNRGEC
notes: also called 1-65; copies: 2 + 2
Regarding B3, the Mean binding response amounted to 31.6 RU.

B4: anti-CD20 human IgG1 L234H/L235Q/G236R (antibody)
heavy: QVQLQQPGAELVKPGASVKMSCKASGYTFTSYNMHWVKQTPGRGLEWIGAIYPGNGDTSYNQKFKGKATLTADKSSSTAYMQLSSLTSEDSAVYYCARSTYYGGDWYFNVWGAGTTVTVSSASTKGPSVFPLAPSSKSTSGGTAALGCLVKDYFPEPVTVSWNSGALTSGVHTFPAVLQSSGLYSLSSVVTVPSSSLGTQTYICNVNHKPSNTKVDKKVEPKSCDKTHTCPPCPAPEHQRGPSVFLFPPKPKDTLMISRTPEVTCVVVDVSHEDPEVKFNWYVDGVEVHNAKTKPREEQYNSTYRVVSVLTVLHQDWLNGKEYKCKVSNKALPAPIEKTISKAKGQPREPQVYTLPPSRDELTKNQVSLTCLVKGFYPSDIAVEWESNGQPENNYKTTPPVLDSDGSFFLYSKLTVDKSRWQQGNVFSCSVMHEALHNHYTQKSLSLSPGK
light: QIVLSQSPAILSASPGEKVTMTCRASSSVSYIHWFQQKPGSSPKPWIYATSNLASGVPVRFSGSGSGTSYSLTISRVEAEDAATYYCQQWTSNPPTFGGGTKLEIKRTVAAPSVFIFPPSDEQLKSGTASVVCLLNNFYPREAKVQWKVDNALQSGNSQESVTEQDSKDSTYSLSSTLTLSKADYEKHKVYACEVTHQGLSSPVTKSFNRGEC
notes: also called 1-72; copies: 2 + 2
Consider B4, for which the Mean binding response was found to be 33.3 RU.

B5: anti-CD20 human IgG1 L234H/L235S/G236R (antibody)
heavy: QVQLQQPGAELVKPGASVKMSCKASGYTFTSYNMHWVKQTPGRGLEWIGAIYPGNGDTSYNQKFKGKATLTADKSSSTAYMQLSSLTSEDSAVYYCARSTYYGGDWYFNVWGAGTTVTVSSASTKGPSVFPLAPSSKSTSGGTAALGCLVKDYFPEPVTVSWNSGALTSGVHTFPAVLQSSGLYSLSSVVTVPSSSLGTQTYICNVNHKPSNTKVDKKVEPKSCDKTHTCPPCPAPEHSRGPSVFLFPPKPKDTLMISRTPEVTCVVVDVSHEDPEVKFNWYVDGVEVHNAKTKPREEQYNSTYRVVSVLTVLHQDWLNGKEYKCKVSNKALPAPIEKTISKAKGQPREPQVYTLPPSRDELTKNQVSLTCLVKGFYPSDIAVEWESNGQPENNYKTTPPVLDSDGSFFLYSKLTVDKSRWQQGNVFSCSVMHEALHNHYTQKSLSLSPGK
light: QIVLSQSPAILSASPGEKVTMTCRASSSVSYIHWFQQKPGSSPKPWIYATSNLASGVPVRFSGSGSGTSYSLTISRVEAEDAATYYCQQWTSNPPTFGGGTKLEIKRTVAAPSVFIFPPSDEQLKSGTASVVCLLNNFYPREAKVQWKVDNALQSGNSQESVTEQDSKDSTYSLSSTLTLSKADYEKHKVYACEVTHQGLSSPVTKSFNRGEC
notes: also called 1-74; 2-21; copies: 2 + 2
Take B5: the Mean binding response came out at 10.9 RU.

B6: anti-CD20 human IgG1 L234H/L235K/G236R (antibody)
heavy: QVQLQQPGAELVKPGASVKMSCKASGYTFTSYNMHWVKQTPGRGLEWIGAIYPGNGDTSYNQKFKGKATLTADKSSSTAYMQLSSLTSEDSAVYYCARSTYYGGDWYFNVWGAGTTVTVSSASTKGPSVFPLAPSSKSTSGGTAALGCLVKDYFPEPVTVSWNSGALTSGVHTFPAVLQSSGLYSLSSVVTVPSSSLGTQTYICNVNHKPSNTKVDKKVEPKSCDKTHTCPPCPAPEHKRGPSVFLFPPKPKDTLMISRTPEVTCVVVDVSHEDPEVKFNWYVDGVEVHNAKTKPREEQYNSTYRVVSVLTVLHQDWLNGKEYKCKVSNKALPAPIEKTISKAKGQPREPQVYTLPPSRDELTKNQVSLTCLVKGFYPSDIAVEWESNGQPENNYKTTPPVLDSDGSFFLYSKLTVDKSRWQQGNVFSCSVMHEALHNHYTQKSLSLSPGK
light: QIVLSQSPAILSASPGEKVTMTCRASSSVSYIHWFQQKPGSSPKPWIYATSNLASGVPVRFSGSGSGTSYSLTISRVEAEDAATYYCQQWTSNPPTFGGGTKLEIKRTVAAPSVFIFPPSDEQLKSGTASVVCLLNNFYPREAKVQWKVDNALQSGNSQESVTEQDSKDSTYSLSSTLTLSKADYEKHKVYACEVTHQGLSSPVTKSFNRGEC
notes: also called 1-68; copies: 2 + 2
With B6, the Mean binding response is 29.2 RU.

B7: anti-CD20 human IgG1 L234H/L235R/G236R (antibody)
heavy: QVQLQQPGAELVKPGASVKMSCKASGYTFTSYNMHWVKQTPGRGLEWIGAIYPGNGDTSYNQKFKGKATLTADKSSSTAYMQLSSLTSEDSAVYYCARSTYYGGDWYFNVWGAGTTVTVSSASTKGPSVFPLAPSSKSTSGGTAALGCLVKDYFPEPVTVSWNSGALTSGVHTFPAVLQSSGLYSLSSVVTVPSSSLGTQTYICNVNHKPSNTKVDKKVEPKSCDKTHTCPPCPAPEHRRGPSVFLFPPKPKDTLMISRTPEVTCVVVDVSHEDPEVKFNWYVDGVEVHNAKTKPREEQYNSTYRVVSVLTVLHQDWLNGKEYKCKVSNKALPAPIEKTISKAKGQPREPQVYTLPPSRDELTKNQVSLTCLVKGFYPSDIAVEWESNGQPENNYKTTPPVLDSDGSFFLYSKLTVDKSRWQQGNVFSCSVMHEALHNHYTQKSLSLSPGK
light: QIVLSQSPAILSASPGEKVTMTCRASSSVSYIHWFQQKPGSSPKPWIYATSNLASGVPVRFSGSGSGTSYSLTISRVEAEDAATYYCQQWTSNPPTFGGGTKLEIKRTVAAPSVFIFPPSDEQLKSGTASVVCLLNNFYPREAKVQWKVDNALQSGNSQESVTEQDSKDSTYSLSSTLTLSKADYEKHKVYACEVTHQGLSSPVTKSFNRGEC
notes: also called 1-73; copies: 2 + 2
Take B7: the Mean binding response came to 35.3 RU.

B8: anti-CD20 human IgG1 L234H/L235H/G236R (antibody)
heavy: QVQLQQPGAELVKPGASVKMSCKASGYTFTSYNMHWVKQTPGRGLEWIGAIYPGNGDTSYNQKFKGKATLTADKSSSTAYMQLSSLTSEDSAVYYCARSTYYGGDWYFNVWGAGTTVTVSSASTKGPSVFPLAPSSKSTSGGTAALGCLVKDYFPEPVTVSWNSGALTSGVHTFPAVLQSSGLYSLSSVVTVPSSSLGTQTYICNVNHKPSNTKVDKKVEPKSCDKTHTCPPCPAPEHHRGPSVFLFPPKPKDTLMISRTPEVTCVVVDVSHEDPEVKFNWYVDGVEVHNAKTKPREEQYNSTYRVVSVLTVLHQDWLNGKEYKCKVSNKALPAPIEKTISKAKGQPREPQVYTLPPSRDELTKNQVSLTCLVKGFYPSDIAVEWESNGQPENNYKTTPPVLDSDGSFFLYSKLTVDKSRWQQGNVFSCSVMHEALHNHYTQKSLSLSPGK
light: QIVLSQSPAILSASPGEKVTMTCRASSSVSYIHWFQQKPGSSPKPWIYATSNLASGVPVRFSGSGSGTSYSLTISRVEAEDAATYYCQQWTSNPPTFGGGTKLEIKRTVAAPSVFIFPPSDEQLKSGTASVVCLLNNFYPREAKVQWKVDNALQSGNSQESVTEQDSKDSTYSLSSTLTLSKADYEKHKVYACEVTHQGLSSPVTKSFNRGEC
notes: also called 1-66; copies: 2 + 2
As for B8, the Mean binding response came to 36.3 RU.

B9: anti-CD20 human IgG1 L234H/L235N/G236R (antibody)
heavy: QVQLQQPGAELVKPGASVKMSCKASGYTFTSYNMHWVKQTPGRGLEWIGAIYPGNGDTSYNQKFKGKATLTADKSSSTAYMQLSSLTSEDSAVYYCARSTYYGGDWYFNVWGAGTTVTVSSASTKGPSVFPLAPSSKSTSGGTAALGCLVKDYFPEPVTVSWNSGALTSGVHTFPAVLQSSGLYSLSSVVTVPSSSLGTQTYICNVNHKPSNTKVDKKVEPKSCDKTHTCPPCPAPEHNRGPSVFLFPPKPKDTLMISRTPEVTCVVVDVSHEDPEVKFNWYVDGVEVHNAKTKPREEQYNSTYRVVSVLTVLHQDWLNGKEYKCKVSNKALPAPIEKTISKAKGQPREPQVYTLPPSRDELTKNQVSLTCLVKGFYPSDIAVEWESNGQPENNYKTTPPVLDSDGSFFLYSKLTVDKSRWQQGNVFSCSVMHEALHNHYTQKSLSLSPGK
light: QIVLSQSPAILSASPGEKVTMTCRASSSVSYIHWFQQKPGSSPKPWIYATSNLASGVPVRFSGSGSGTSYSLTISRVEAEDAATYYCQQWTSNPPTFGGGTKLEIKRTVAAPSVFIFPPSDEQLKSGTASVVCLLNNFYPREAKVQWKVDNALQSGNSQESVTEQDSKDSTYSLSSTLTLSKADYEKHKVYACEVTHQGLSSPVTKSFNRGEC
notes: also called 1-71; copies: 2 + 2
In the case of B9, the Mean binding response was determined as 24.6 RU.
